Residue numbers refer to the chain shown, from its start.
T1: FLAG-D4: domain 4 and onwards (353-525) of human LAG-3 with N-terminal FLAG tag, on cells (human, UniProt P18627 353-525)
T1 construct: Expressed on HEK293T cells from pcDNA3.1; any leader before the FLAG tag is not described; also called construct containing only domain 4
T1 sequence: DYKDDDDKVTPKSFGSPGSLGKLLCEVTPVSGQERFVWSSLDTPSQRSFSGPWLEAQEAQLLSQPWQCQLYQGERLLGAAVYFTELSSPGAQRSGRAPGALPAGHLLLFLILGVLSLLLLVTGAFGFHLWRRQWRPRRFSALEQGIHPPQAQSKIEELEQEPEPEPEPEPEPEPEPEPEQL

T2: LAG-3_D3D4-His: 3rd and 4th extracellular immunoglobulin-like domains (263-450) of human LAG-3 with … (UniProt P18627 263-450)
T2 chain: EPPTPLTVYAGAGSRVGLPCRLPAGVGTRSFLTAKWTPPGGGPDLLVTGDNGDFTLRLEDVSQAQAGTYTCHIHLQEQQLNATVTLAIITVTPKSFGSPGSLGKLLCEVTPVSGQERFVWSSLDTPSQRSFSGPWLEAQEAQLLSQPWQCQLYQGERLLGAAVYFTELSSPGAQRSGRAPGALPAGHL

T3: human LAG-3 (full length, expressed on cells) (human, UniProt P18627 23-525)
T3 construct: also called CD223; hLAG-3
T3 sequence: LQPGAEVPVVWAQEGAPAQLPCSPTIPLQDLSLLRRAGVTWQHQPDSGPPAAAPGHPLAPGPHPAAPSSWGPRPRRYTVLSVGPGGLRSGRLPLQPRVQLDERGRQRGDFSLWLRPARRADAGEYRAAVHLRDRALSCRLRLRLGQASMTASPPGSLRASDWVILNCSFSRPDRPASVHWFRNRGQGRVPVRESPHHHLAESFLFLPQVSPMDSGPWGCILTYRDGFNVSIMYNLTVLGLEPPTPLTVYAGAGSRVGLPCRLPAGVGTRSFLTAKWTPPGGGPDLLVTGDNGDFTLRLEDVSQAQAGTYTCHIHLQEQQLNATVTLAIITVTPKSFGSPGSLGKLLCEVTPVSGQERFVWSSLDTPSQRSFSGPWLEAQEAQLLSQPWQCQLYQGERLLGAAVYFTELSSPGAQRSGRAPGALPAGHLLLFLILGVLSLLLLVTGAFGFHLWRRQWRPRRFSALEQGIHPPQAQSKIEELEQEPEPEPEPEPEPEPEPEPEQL

T4: FLAG-D3D4: domain 3 and onwards (263-525) of human LAG-3 with N-terminal FLAG tag, on cells (human, UniProt P18627 263-525)
T4 construct: Expressed on HEK293T cells from pcDNA3.1; any leader before the FLAG tag is not described; also called construct containing domains 3 and 4
T4 sequence: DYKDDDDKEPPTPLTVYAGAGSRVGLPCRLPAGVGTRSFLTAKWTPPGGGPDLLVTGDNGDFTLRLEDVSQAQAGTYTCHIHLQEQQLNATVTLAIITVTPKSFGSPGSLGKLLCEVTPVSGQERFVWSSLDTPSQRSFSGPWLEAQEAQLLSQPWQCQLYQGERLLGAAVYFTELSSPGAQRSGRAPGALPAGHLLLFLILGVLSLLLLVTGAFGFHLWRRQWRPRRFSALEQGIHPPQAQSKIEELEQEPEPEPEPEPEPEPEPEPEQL

B1: rat anti-human LAG-3 monoclonal antibody rLA212 (antibody, V domains shown)
VH: EVQLVESGGGLVQPGRSLKLSCAASGFTYRSYVMAWVRQAPTRGLEWVASISTGGGNTYYRDSVKGRFTISRDNAKNTLYLQMDSLRSEDTATYYCAEDMSNSGYGLFDYWGQGVMVTVSS
VL: NIVMTQSPKSMSISVGDRVTMNCKAGQNVDNNIAWYQKKPGQSPKLLIYYASNRNTGVPDRFTGGGYGTDFTLTINSVQAEDAAFYYCQRISNSPYTFGAGTELELKR
notes: Rat monoclonal antibody purified from hybridoma supernatant; the rat constant regions are not
B2: rat anti-human LAG-3 monoclonal antibody rLA204 (antibody, V domains shown)
VH: EVELVESGGGLVQPGRSMKLSCAASGFTFRTYGMAWVRQAPTKGLEWVASISTGGGSTYYRDSVKGRFTISRDNAKSTLYLQMDSLRSEDTATYYCTTDLINYPGIGGFAFWGQGTLVTVSS
VL: NIVMTQSPKSMSISVGDRVTMNCKASQNVYNNIAWYQQKPGKSPKLLIYYASNRYTGVPDRFTGSGSGTDFTLTIHSVQAEDAAFYYCQRLYNSPPTFGGGTKLELKR
notes: the rat constant regions are not
B3: rat anti-human LAG-3 monoclonal antibody rLA225 (antibody, V domains shown)
VH: EVQLVESGGGLVQPGRSMKLSCVASGFTFSNYYMAWVRQAPTKGLEWVASISTGGGNTYYRDSVKGRFTISRDNAKSTLYLQMDSLRSEDTATYYCARPPYGYNYGWFTYWGQGTLVTVSS
VL: DIQMTQSPASLSASLGETVTIECRASEDIHNGLVWYQQKPGKSPQLLIYNANSMHTGVPSRFSGSGSGTQYSLKINSLQSEDVASYFCQQYYNYPRTFGGGTKLELKR
notes: as for B1
B4: humanized anti-human LAG-3 antibody hLA212_H3/L2 (antibody, human IgG1, kappa, V domains shown)
VH: B1 VH with R16G, K19R, T42G, R43K, S88A, T93V, V115T, M116L
VL: DIQMTQSPSSLSASVGDRVTITCKAGQNVDNNIAWYQQKPGQSPKLLIYYASNRNTGVPSRFSGSGYGTDFTLTISSLQPEDFATYYCQRISNSPYTFGQGTKVEIKR
notes: Human IgG1/kappa; not in a low fucose form; also called humanized hLA212_H3/L2
B5: humanized anti-human LAG-3 antibody hLA212_H2/L5 (antibody, human IgG1, kappa, V domains shown)
VH: B1 VH with R16G, K19R, T42G, R43K, A49G, D84N, S88A, T93V, V115T, M116L
VL: B1 VL with V3Q, K9S, N22T, T63S, N76S, A80P, A100Q, E103K
notes: Human IgG1/kappa; also called humanized hLA212_H2/L5
B6: humanized anti-human LAG-3 antibody hLA212_H2/L4 (antibody, human IgG1, kappa, V domains shown)
VH: B1 VH with R16G, K19R, T42G, R43K, A49G, D84N, S88A, T93V, V115T, M116L
VL: B4 VL with L11M, A13I, I21M, Q38K, Y67S, L78V, V104L, I106L
notes: Human IgG1/kappa; also called humanized hLA212_H2/L4
B7: humanized anti-human LAG-3 antibody hLA212_H3/L3 (antibody, human IgG1, kappa, V domains shown)
VH: B1 VH with R16G, K19R, T42G, R43K, S88A, T93V, V115T, M116L
VL: B4 VL with D1N, Q38K, S60D, S65G, T85F
notes: Human IgG1/kappa; also called humanized hLA212_H3/L3
B8: humanized anti-human LAG-3 antibody hLA212_H3/L4 (antibody, human IgG1, kappa, V domains shown)
VH: B1 VH with R16G, K19R, T42G, R43K, S88A, T93V, V115T, M116L
VL: B4 VL with L11M, A13I, I21M, Q38K, Y67S, L78V, V104L, I106L
notes: Human IgG1/kappa; also called humanized hLA212_H3/L4
B9: humanized anti-human LAG-3 antibody hLA212_H3/L5 (antibody, human IgG1, kappa, V domains shown)
VH: B1 VH with R16G, K19R, T42G, R43K, S88A, T93V, V115T, M116L
VL: B1 VL with V3Q, K9S, N22T, T63S, N76S, A80P, A100Q, E103K
notes: Human IgG1/kappa; also called humanized hLA212_H3/L5
B10: humanized anti-human LAG-3 antibody hLA212_H3/L1 (antibody, human IgG1, kappa, V domains shown)
VH: B1 VH with R16G, K19R, T42G, R43K, S88A, T93V, V115T, M116L
VL: B4 VL with S43A, Y67S
notes: Human IgG1/kappa; also called humanized hLA212_H3/L1
B11: humanized anti-human LAG-3 antibody hLA212_H2/L1 (antibody, human IgG1, kappa, V domains shown)
VH: B1 VH with R16G, K19R, T42G, R43K, A49G, D84N, S88A, T93V, V115T, M116L
VL: B4 VL with S43A, Y67S
notes: Human IgG1/kappa; also called humanized hLA212_H2/L1
B12: humanized anti-human LAG-3 antibody hLA212_H2/L3 (antibody, human IgG1, kappa, V domains shown)
VH: B1 VH with R16G, K19R, T42G, R43K, A49G, D84N, S88A, T93V, V115T, M116L
VL: B4 VL with D1N, Q38K, S60D, S65G, T85F
notes: Human IgG1/kappa; also called humanized hLA212_H2/L3
B13: humanized anti-human LAG-3 antibody hLA212_H2/L2 (antibody, human IgG1, kappa, V domains shown)
VH: B1 VH with R16G, K19R, T42G, R43K, A49G, D84N, S88A, T93V, V115T, M116L
VL: B4 VL
notes: Human IgG1/kappa; also called humanized hLA212_H2/L2
B14: human chimeric anti-LAG-3 antibody cLA212 (antibody, human IgG1, V domains shown)
VH: B1 VH
VL: B1 VL
notes: Human IgG1/kappa chimera; The C-terminal ends 470 and 234 are inferred from the humanized chains, which differ from cLA212 by substitutions only; also called rLA212 human chimeric antibody
B15: rat anti-human LAG-3 monoclonal antibody rLA1264 (antibody, V domains shown)
VH: EVQLVESGGGLVQPGRSLKLSCAASGFTFSSYYMAWVRQAPTKGLEWVAYISNGGYSTYYRDSVKGRFTISRENAKSTLYLQMDSLRSEDTATYYCTITDHSGYRFTYWGQGTLVTVSS
VL: DIQMTQSPSLLSASVGDRVTLSCKASQSIYNSLAWYQQKLGEAPKLLIYDANSLQTGIPSRFSGSGSGTDFTLTISSLQPEDVATYFCQKYYSGNTFGAGTKLELKR
notes: Rat monoclonal antibody
B16: rat anti-human LAG-3 monoclonal antibody rLA869 (antibody, V domains shown)
VH: EVQLVESGGGLVQPGRSLKLSCAASGFTYRTYVMAWVRQGPTQGLEWVASISTGGVSTYYRDSVKGRFTISRDNAKNTLYLQMDSLRSEDTATYYCAKDMLNGYNSQGLFDYWGQGVMVTVSS
VL: NIVMTQSPKSMSISVGDRVTMNCRASQNVDNTIAWYQQKPGQSPKLLIYFASDRYTGVPDRFTGGGYGTDFTLTINSVQAEDAAFYYCQRIYNSPLTFGSGTKLEIRR
notes: Rat monoclonal antibody

Biological target: T1, FLAG-D4: domain 4 and onwards (353-525) …
Assay: flow cytometry on transfected HEK293T cells
Procedure: (§1) It was further confirmed by flow cytometry that the antibody produced by the hybridomas determined to be positive by the Cell-ELISA in Example 1)-3 binds to PHA (phytohemagglutinin) activated human T cells (PHA blasts), a more physiologically relevant cell type expressing LAG-3. To human PBMCs stimulated with 2 μg/mL of PHA (manufactured by Sigma-Aldrich) for three days, was added a hybridoma culture supernatant for suspension, followed by reaction at 4° C. for 30 minutes. After washing with a FACS buffer (PBS, 0.1% BSA, and 0.1% sodium azide), a secondary antibody such as an Anti-Rat IgG PE conjugate (manufactured by Jackson ImmunoResearch Laboratories, Inc.) diluted 200-fold with a FACS buffer comprising a LIVE/DEAD Fixable Dead Cell Stain Kit-near-IR fluorescent reactive dye (manufactured by Invitrogen Corp.) was added thereto for suspension, followed by standing at 4° C. for 30 minutes. After washing with a FACS buffer, the cells were resuspended in PBS containing 1 to 2% paraformaldehyde, followed by detection using a flow cytometer (Cantoll: manufactured by Becton, Dickinson and Company or FC500: manufactured by Beckman Coulter Inc.). The data was analyzed using FlowJo (manufactured by Tree Star Inc). After removal of the LIVE/DEAD Fixable Dead Cell Stain Kit-near-IR fluorescent reactive dye-positive dead cells by gating, a histogram of the fluorescence intensity of the living cells was plotted.
(§2) Each expression plasmid (cloned into pcDNA3.1) of either domain 3 and onwards (263-525) or domain 4 and onwards (353-525) of human LAG-3 with a FLAG tag sequence ([…]) added to the N terminus was introduced into HEK293T cells using Lipofectamine 2000 (manufactured by Life Technologies Corp.), and the cells were cultured for 1 day and then recovered, to investigate the binding activity of the antibodies by flow cytometry according to the method described in Example 1)-4. […]

binding result | Binder
no binding (tested: 10 µg/mL) | B1
no binding (tested: 10 µg/mL) | B2
no binding (tested: 10 µg/mL) | B3

Biological target: T2, LAG-3_D3D4-His: 3rd and 4th …
Assay: SPR (Biacore T200)

Kd | Binder
0.062 nM | B4
0.12 nM | B5
0.096 nM | B6
0.1 nM | B7
0.076 nM | B8
0.1 nM | B9
0.092 nM | B10
0.11 nM | B11
0.15 nM | B12
0.12 nM | B13

Biological target: T3, human LAG-3 (full length, expressed on …)
Assay: flow cytometry on 293T-lacZ cells expressing human LAG-3

binding result | Binder
binds | B4
binds | B14
binds | B5
binds | B6
binds | B7
binds | B8
binds | B9
binds | B10
binds | B11
binds | B12
binds | B13

Biological target: T4, FLAG-D3D4: domain 3 and onwards …
Assay: flow cytometry on transfected HEK293T cells, antibody at 10 µg/mL
Procedure: as §1, §2

binding result | Binder
binds | B1
binds | B2
binds | B3

Biological target: T4, FLAG-D3D4: domain 3 and onwards …
Assay: same type of flow cytometry experiment using hybridoma culture supernatant

binding result | Binder
binds | B15
binds | B16

Biological target: T3, human LAG-3 (full length, expressed on …)
Assay: flow cytometry on PHA-activated human T cells (PHA blasts) expressing LAG-3

binding result | Binder
binds | B15
binds | B1
binds | B2
binds | B16
binds | B3
